Measured values taken from patent publication US20260226144A1 (NEPHRIS, published 2026).
Where a chain is given by its changes, count along the chain named.

T1: native human NBL1 (human, UniProt P41271 17-181, limits assumed)
T1 construct: Endogenous protein in permeabilized PBMCs of healthy volunteers; also called native human NBL1 found in human PBMCs
T1 sequence (looked up): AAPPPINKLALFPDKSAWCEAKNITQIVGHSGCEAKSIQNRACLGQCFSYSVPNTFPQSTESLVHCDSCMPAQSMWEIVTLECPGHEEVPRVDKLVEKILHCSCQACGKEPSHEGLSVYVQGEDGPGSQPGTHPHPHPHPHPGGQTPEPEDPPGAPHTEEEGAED

T2: native murine NBL1 (murine, UniProt Q61477 17-178)
T2 construct: Endogenous protein, not recombinant; also called murine plasma NBL1; murine splenocyte NBL1
T2 sequence (looked up): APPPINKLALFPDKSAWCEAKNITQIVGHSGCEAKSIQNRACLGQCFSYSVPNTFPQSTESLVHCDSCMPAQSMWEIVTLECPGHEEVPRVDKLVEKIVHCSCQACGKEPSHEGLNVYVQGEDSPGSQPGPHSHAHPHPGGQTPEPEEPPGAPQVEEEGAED

T3: mouse NBL1 (mouse, UniProt Q61477 17-178, limits assumed)
T3 sequence (looked up): T2 sequence (looked up)

B1: Antibody YU1018-E04 (antibody, human IgG1, V domains shown)
VH: QVQLVQSGAEVKKPGESLKISCKGSGYSFTSYWIGWVRQMPGKGLEWMGIIYPGDSDTRYSPSFQGQVTISADKSISTAYLQWSSLKASDTAMYYCARAIVGATSGYWFDPWGQGTLVTVSS
VL: not shown
B2: Antibody YU1019-B06 (antibody, human IgG1, V domains shown)
VH: EVQLLESGGGVVQPGRSLRLSCAASGFTFSSYAMHWVRQAPGKGLEWVAVISYDGSNKYYADSVKGRFTISRDNSKNTLYLQMNSLRAEDTAVYYCASPVLRYFDWLPNYWGQGTLVTVSS
VL: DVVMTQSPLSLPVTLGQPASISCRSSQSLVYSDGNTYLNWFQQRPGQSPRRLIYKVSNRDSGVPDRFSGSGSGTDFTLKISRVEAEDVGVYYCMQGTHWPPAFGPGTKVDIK
B3: Antibody YU1019-A12 (antibody, human IgG1, V domains shown)
VH: EVQLLESGPGLVKPSQTLSLTCTVSGGSISSGDYYWSWIRQPPGKGLEWIGYIYYSGSTYYNPSLKSRVTISVDTSKNQFSLKLSSVTAADTAVYYCARGRRLLLFHWGQGTTVTVSS
VL: QSVLTQPPSVSAAPGQKVTISCSGSGSSIGNNYVSWYQQVPGTPPKLLIYDNNKRASGIPDRFSGSKSGTSATLGITGLQTGDEADYYCGTWDNSLSAVVFGGGTKLTVL
B4: Antibody YU1018-C11 (antibody, V domains shown)
VH: QVQLVQSGGGLVQPGGSLRLSCAASGFTFSSYAMSWVRQAPGKGLEWVSAISGSGGSTYYADSVKGRFTISRDNSKNTLYLQMNSLRAEDTAVYYCARGGFWGSYRYWSAAFDIWGQGTMVTVSS
VL: not shown
B5: Antibody YU1018-E07 (antibody, V domains shown)
VH: B2 VH with L116T
VL: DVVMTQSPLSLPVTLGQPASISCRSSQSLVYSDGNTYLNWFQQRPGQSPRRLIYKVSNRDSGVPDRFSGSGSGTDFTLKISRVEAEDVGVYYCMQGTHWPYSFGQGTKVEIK
B6: Antibody YU1018-D12 (antibody, V domains shown)
VH: EVQLVQSGAEVKKPGASVKVSCKASGYTFTSYGISWVRQAPGQGLEWMGWISAYNGNTNYAQKLQGRVTMTTDTSTSTAYMELRSLRSDDTAVYYCARDVGYSYGIFDYWGQGTLVTVSS
VL: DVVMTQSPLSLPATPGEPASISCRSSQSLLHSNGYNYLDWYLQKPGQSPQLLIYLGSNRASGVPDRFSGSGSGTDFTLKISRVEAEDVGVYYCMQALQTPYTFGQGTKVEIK
B7: Antibody YU1018-D08 (antibody, human IgG1, V domains shown)
VH: QVQLVQSGAEVKKPGSSVKVSCKASGGTFSSYAISWVRQAPGQGLEWMGGIIPIFGTANYAQKFQGRVTITADKSTSTAYMELSSLRSEDTAVYYCARDRYYDSSGYYLMDPWGQGTLVTVSS
VL: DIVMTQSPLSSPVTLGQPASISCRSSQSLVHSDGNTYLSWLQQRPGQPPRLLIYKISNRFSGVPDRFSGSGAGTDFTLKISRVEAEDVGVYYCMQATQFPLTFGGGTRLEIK
B8: Antibody YU1018-G01 (antibody, human IgG1, V domains shown)
VH: QVQLVQSGAEVKKPGASVKVSCKASGYTFTSYAMHWVRQAPGQRLEWMGWINAGNGNTKYSQKFQGRVTITRDTSASTAYMELSSLRSEDTAVYYCARGRELLTFDYWGQGTLVTVSS
VL: not shown
B9: Antibody YU1018-E01 (antibody, human IgG1, V domains shown)
VH: QVQLVQSGAEVKKPGASVKVSCKASGYTFTSYGISWVRQAPGRGLEWMGWISAYNGNTNYAQKLQGRVTMTTDTSTSTAYMELRSLRSDDTAVYYCARGPRDGYNDYWGQGTLVTVSS
VL: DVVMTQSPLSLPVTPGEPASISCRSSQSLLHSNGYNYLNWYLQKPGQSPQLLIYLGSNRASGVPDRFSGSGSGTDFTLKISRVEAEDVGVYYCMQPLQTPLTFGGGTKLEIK
B10: Antibody YU1018-D06 (antibody, human IgG1, V domains shown)
VH: QVQLVESGPGLVKPSQTLSLTCTVSGGSISSGGYYWSWIRQHPGKGLEWIGYIYYSGSTYYNPSLKSRVTISVDTSKNQFSLKLSSVTAADTAVYYCARSGAAGIPWFDPWGQGTLVTVSS
VL: B3 VL with G26S, S28N, V40L, P44A, D51E, K54E, A56P, F63L, G75A, N94S

target: T1, native human NBL1; assay: immunotargeted assay on permeabilized human PBMCs, FACS
Source text: PBMCs were isolated from blood samples of healthy volunteers.

Binding result, binds:
B1
B2
B3

target: T2, native murine NBL1; assay: sandwich ELISA on native murine plasma NBL1
Procedure: Binding of the mAbs to native murine plasma NBL1 was performed using a sandwich ELISA, as illustrated in FIG. 11A.

Binding result, binds:
B3

target: T2, native murine NBL1; assay: immunotarget assay on permeabilized murine splenocytes, FACS

Binding result, binds:
B1
B2

target: T3, mouse NBL1; assay: ELISA, IgG1 format

Binding result, binds:
B1
B4
B2
B5
B6
B7
B8
B9
B3
B10
